No end group written: not given here.
Tests used:
[1] = target: T1, hGR3 (Homo sapiens, UniProt P49683); conditions: receptor expressed in human pituitary, nearly identical to GPR10; cited from earlier work
T1 sequence (P49683 1-370): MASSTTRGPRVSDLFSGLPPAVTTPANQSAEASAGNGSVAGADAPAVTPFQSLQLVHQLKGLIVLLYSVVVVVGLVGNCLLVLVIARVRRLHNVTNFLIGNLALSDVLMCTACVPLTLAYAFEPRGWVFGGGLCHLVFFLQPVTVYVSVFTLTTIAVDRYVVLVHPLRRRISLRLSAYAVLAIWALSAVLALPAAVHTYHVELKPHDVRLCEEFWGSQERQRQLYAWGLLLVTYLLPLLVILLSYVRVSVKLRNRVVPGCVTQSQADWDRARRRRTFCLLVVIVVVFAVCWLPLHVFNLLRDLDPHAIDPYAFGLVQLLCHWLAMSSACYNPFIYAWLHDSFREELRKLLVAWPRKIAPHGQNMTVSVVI

[2] = target: T2, GPR10 (Mus musculus, UniProt Q6VMN6); test: Food intake after intracerebroventricular injection of PrRP in mice; type: in vivo; conditions: 0.1, 1, 5, 10 mg PrRP intracerebroventricular vs saline, measured for two hours after treatment
T2 construct: from tissue; host or cells: brain of living C57BL/6J mice (lean and ob/ob), intracerebroventricular dosing
T2 sequence (Q6VMN6 1-370): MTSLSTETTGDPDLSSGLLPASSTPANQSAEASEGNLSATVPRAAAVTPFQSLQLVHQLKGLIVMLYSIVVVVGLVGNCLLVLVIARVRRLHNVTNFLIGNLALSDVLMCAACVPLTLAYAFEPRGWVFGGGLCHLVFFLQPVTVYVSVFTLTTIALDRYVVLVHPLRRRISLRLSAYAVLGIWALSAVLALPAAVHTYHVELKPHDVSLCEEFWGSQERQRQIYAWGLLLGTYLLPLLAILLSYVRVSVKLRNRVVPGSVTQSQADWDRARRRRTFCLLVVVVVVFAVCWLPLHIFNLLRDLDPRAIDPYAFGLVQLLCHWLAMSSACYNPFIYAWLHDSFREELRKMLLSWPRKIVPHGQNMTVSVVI
Method: A 31 amino acid amidated synthetic peptide having the sequence of rat PrRP ([…]-NHz; SEQ ID NO:4; Hinuma et al., (1998) Nature 393:272-76) was used to examine the effect of GPR10 modulators on food intake.
Male and female lean and male obese ob/ob C57BL/6J mice were individually housed in macrolon cages (22±2° C.; 12:12 hr light:dark cycle with lights off at 6 pm). Tap water and mouse chow were given ad libitum. Mice were stereoaxically implanted with a chronic guide cannula aimed to the third ventricle (intracerebroventricular) one week prior to the initiation of the experiment.
Mice (15/group) were treated with […] of PrRP peptide or saline (control) by intracerebroventricular injections at 9:00 am. Food intake was measured for two hours after treatment.

[3] = target: T2, GPR10; test: Metabolic rate of mice in an open-circuit calorimeter after intracerebroventricular PrRP; type: in vivo; conditions: 5 μg PrRP intracerebroventricular vs saline
Method: The effect of a 5 μg dose of PrRP on the metabolic rate of male mice denied or permitted access to food was investigated as follows. Male C57BL/6J mice maintained as described above were placed in an open-circuit calorimeter coupled to a feeding monitor. The mice were administered 5 μg of PrRP or saline intracerebroventricularly at 1 hr and 45 min after the start of metabolic monitoring. One group (n=6) of mice was allowed access to food and one group of mice (n=6) was not allowed access to food. Respiratory quotient was calculated as the ratio of CO2 production/O2 consumption. Metabolic rate (kcal/g/h) was computed based on O2 consumption and respiratory rate quotient.

[4] = tested on: anterior pituitary cells of lactating rats; conditions: anterior pituitary cells of lactating rats in vitro; cited from earlier work

Q: Which “binding to hGR3” value [1] does the source give for “PrRP: 31 amino acid amidated synthetic peptide having the sequence of rat PrRP (SRAHQHSMETRTPDINPAWYTGRGIRPVGRF-NHz; SEQ ID NO:4); a GPR10 ligand (SRAHQHSMETRTPDINPAWYTGRGIRPVGRF-NH2; listed as Mus musculus)” here?
A: binds to hGR3

Q: And the food intake ([2]; lean female C57BL/6J mice, FIG. 4)?
A: increased food intake

Q: And the food intake ([2]; lean male C57BL/6J mice, FIG. 3)?
A: increased food intake

Q: And the food intake ([2]; male obese ob/ob C57BL/6J mice, FIG. 5)?
A: increased food intake

Q: What about the metabolic rate ([3]; lean male C57BL/6J mice having access to food, FIG. 7) of the same substance?
A: increases the metabolic rate

Q: What about the metabolic rate ([3]; lean male C57BL/6J mice having no access to food, FIG. 6) of the same substance?
A: increases the metabolic rate

Q: And the release of prolactin [4]?
A: stimulates release of prolactin

Source: US6537765B2, “GPR10 as a target for identifying weight modulating compounds” (Millennium Pharmaceuticals, Inc., priority 1998, dated 2003)
